Biological target: ovalbumin-hippuric acid conjugate (OVA-HA) (UniProt P01012)
Test: indirect ELISA on hippuric acid antigen, purified soluble scFv-E tag at 10-fold dilution, rabbit anti-E tag and goat anti-rabbit IgG-HRP detection

Sequence of UniProt P01012 (P01012 2-386 limits assumed): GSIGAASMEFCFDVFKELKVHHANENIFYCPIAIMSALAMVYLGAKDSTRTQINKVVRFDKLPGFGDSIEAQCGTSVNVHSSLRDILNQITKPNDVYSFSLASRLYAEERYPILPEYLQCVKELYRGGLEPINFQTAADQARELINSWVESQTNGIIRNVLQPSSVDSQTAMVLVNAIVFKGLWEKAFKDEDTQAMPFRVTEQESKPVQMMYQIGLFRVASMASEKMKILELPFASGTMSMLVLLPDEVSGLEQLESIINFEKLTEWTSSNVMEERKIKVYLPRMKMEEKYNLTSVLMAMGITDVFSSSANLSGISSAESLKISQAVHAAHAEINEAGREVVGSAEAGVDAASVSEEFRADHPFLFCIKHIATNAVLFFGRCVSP

B1: soluble single chain variable fragment scFv-E tag derived from 4D31G111B7 (scFv)
scFv: AAQPAEVMLVESGASVKISCKASGYSFTGYYMHWVKQSHVKTLEWVGRITPYNGATNYNQNFKDKASLTVDKSSSTAYMEFHSLTSEDSAVYYCVRMYADVWGAGTSVTVSSVKTTPPSVYPLAPGGGGSGGGGSGGGGSEIVLTQSPSSLSASLGESVTLACRGASQDIGGRLNWLQQEADGTIKRLIYATSSLDSGVPKRFSGSRSGSDYSLTISSLESEDFVDYYCLQYDRSPYTFGGGTKLEIKRGDAAPTVAA
- antibody titer: 0.516
